Laboratory results: US20260116951A1 (DUCENTIS BIOTHERAPEUTICS, published 2026)

Columns and labels:
Human CD200R1L = target: T1, Human CD200R1L (human, UniProt Q6Q8B3 24-239, limits assumed); test: SPR (BIAcore)
T1 construct: nothing is said of the reagent
T1 sequence (looked up): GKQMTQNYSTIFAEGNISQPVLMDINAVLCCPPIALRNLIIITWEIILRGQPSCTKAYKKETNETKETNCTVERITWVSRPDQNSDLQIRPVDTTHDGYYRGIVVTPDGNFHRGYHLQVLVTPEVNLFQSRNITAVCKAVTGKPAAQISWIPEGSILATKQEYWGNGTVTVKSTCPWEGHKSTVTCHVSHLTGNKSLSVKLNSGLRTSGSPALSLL

[1] = target: T2, Recombinant Cyno CD200R, His-tagged (Creative Biomart CD200R1-3483C) (cynomolgus monkey); test: SPR (BIAcore), DS-118 captured (0.5 ug/mL), CynoCD200R1 flowed at 1000 nM to 62.5 nM, 25 C, 1:1 Binding model, run 1
T2 construct: Bought; also called cynomolgus CD200R1; cynomolgus CD200R
Protocol: For human CD200 constructs: anti-human Fc (GE Healthcare) was covalently immobilized on a BIAcore CM5 sensor chip (Cytiva, BR100530) by amine coupling using a Cytiva kit (BR100839) following the manufacturer's instructions, targeting immobilization of 8,000-11,000 RU. CD200-Fc proteins were diluted to 0.5 μg/mL to 4 μg/mL in running Buffer (1×HBS-EP+pH7.4 (Cytiva BR100669), HEPES Buffered Saline pH 7.4 containing 3 mM EDTA and 0.05% v/v Surfactant P20) and flowed for 25 to 100 seconds at 10 μL/min over the immobilized Anti-Human IgG Fc, with a stabilization time of 60 seconds. Between 35 and 250 RUs of CD200-Fc were captured, with higher RUs used for cynomolgus CD200R binding experiments. […] Analysis temperature was 25° C. This was followed by regeneration of the surface with 30-90 second pulse of 3M MgCl₂ flowed at […] flow rate followed by stabilization of the surface with 60 second flow of running buffer.
For mouse CD200 constructs, muCD200R-Fc (Creative Biomart CD200R1-458M) diluted to 1 μg/mL in running buffer was flowed over the immobilized Anti-Human IgG Fc, with CD200 monomers serially diluted and flowed over captured CD200R. Other details were as above. Data analysis: experimental sensorgrams were analyzed in BIAevaluation software (GE Healthcare). The curves obtained were fitted to 1:1 Langmuir binding model by setting Rmax and RI as local parameters. Rate equations using standard parameters (e.g. ligand concentration, time) were used for iterative curve fitting. Closeness of fit was determined by algorithms provided by the manufacturer in the BIAevaluation software, and data accepted if the Chi² value was less than 10% of Rₘₐₓ, and the U value was less than or equal to 15.

B1: DS-118 (mutated human CD200-Fc fusion protein, K130Y, I131Y, IgG4 S228P Fc) (Fc fusion)
chain: QVQVVTQDEREQLYTPASLKCSLQNAQEALIVTWQKKKAVSPENMVTFSENHGVVIQPAYKDKINITQLGLQNSTITFWNITLEDEGCYMCLFNTFGFGYYSGTACLTVYVQPIVSLHYKFSEDHLNITCSATARPAPMVFWKVPRSGIENSTVTLSHPNGTTSVTSILHIKDPKNQVGKEVICQVLHLGTVTDFKQTVNKGPPCPPCPAPEFLGGPSVFLFPPKPKDTLMISRTPEVTCVVVDVSQEDPEVQFNWYVDGVEVHNAKTKPREEQFNSTYRVVSVLTVLHQDWLNGKEYKCKVSNKGLPSSIEKTISKAKGQPREPQVYTLPPSQEEMTKNQVSLTCLVKGFYPSDIAVEWESNGQPENNYKTTPPVLDSDGSFFLYSRLTVDKSRWQEGNVFSCSVMHEALHNHYTQKSLSLSLGK
notes: also called mutated CD200-Fc; mutant CD200-Fc
- binding result (Human CD200R1L): no binding
- Kd [1]: 207 nM
- koff [1]: 0.0164 s⁻¹
- kon [1]: 79200 M⁻¹ s⁻¹
